Target: GST-Dip1 (S. pombe) (S. pombe) (UniProt O74771)
Test: pull-down

Sequence of UniProt O74771 (O74771 whole entry): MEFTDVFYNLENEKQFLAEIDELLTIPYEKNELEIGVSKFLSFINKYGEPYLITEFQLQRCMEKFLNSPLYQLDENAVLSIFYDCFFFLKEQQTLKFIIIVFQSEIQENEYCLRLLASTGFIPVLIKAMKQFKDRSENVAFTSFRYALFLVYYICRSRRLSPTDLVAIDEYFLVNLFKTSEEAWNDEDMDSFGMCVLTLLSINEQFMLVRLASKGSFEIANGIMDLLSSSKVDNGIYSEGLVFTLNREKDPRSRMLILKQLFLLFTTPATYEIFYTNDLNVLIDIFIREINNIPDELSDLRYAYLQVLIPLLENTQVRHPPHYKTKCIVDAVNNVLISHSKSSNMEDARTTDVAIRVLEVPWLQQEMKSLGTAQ

## S. pombe Arp2/3 complex (from UniProt Q9UUJ1 1-390)
  percent pulled down: 20%

From paper PMC3930447
